The target of assay [1] is SARS-COV-2 Omicron BA.2 spike on HIV-1 based pseudovirus (SARS-CoV-2 Omicron BA.2, UniProt P0DTC2 14-1273). In words: cell-based or functional assay.
Assay [2] has as its target SARS-COV-2 Omicron BA.1.1 spike on HIV-1 based pseudovirus (SARS-CoV-2 Omicron BA.1.1, UniProt P0DTC2 14-1273). In words: cell-based or functional assay.
Assay [3] has as its target SARS-COV-2 Omicron BA.1 spike on HIV-1 based pseudovirus (Example 3) (SARS-CoV-2 Omicron BA.1, UniProt P0DTC2 14-1273). Description: cell-based or functional assay.
Assay [4] deals with SARS-COV-2 Omicron (B.1.1.529) full length spike on HIV-1 based pseudovirus (Example 2) (SARS-CoV-2 Omicron, UniProt P0DTC2 14-1273). Description: cell-based or functional assay.
Assay [5] addresses T1, SARS-COV-2 Omicron RBD recombinant protein (Sino Biological 40592-V08H121) (SARS-CoV-2 Omicron BA.1, UniProt P0DTC2 319-541).
Assay [6] addresses T1, SARS-COV-2 Omicron RBD recombinant …. This is another data set of the same source.
Assay [7] has the same target. The source holds these as a separate data set.
Assay [8] has the same target. Description: BLI (Octet); by the text the format with mAb immobilised and soluble Omicron RBD. In general terms: In BLI a coated tip is dipped into the sample, and binding shifts an interference pattern.
The target is the same in assay [9]. In words: ELISA, SARS-CoV-2-Omicron BA.1 RBD coated, antibody titrated. (In general: In an ELISA, binding on a coated surface is turned into a signal by an enzyme label.)
For assay [10] the target is unchanged. The source holds these as a separate data set.
Assay [11] has the same target. This is another data set of the same source.
Assay [12] shares this target. The source holds these as a separate data set.

Like-named read-outs stand apart in the source and are kept apart here.

B1: CoV2-0213 (bispecific antibody, human IgG1, kappa)
heavy 1: not shown
light 1: DIQMTQSPSSLSASVGDRVTITCRASESVEYYGTSLMQWYQQKPGKAPKLLIYAASNVESGVPARFSGSGSGTDFTLTISSLQPEDFATYYCQQSRKVPWTFGQGTKVEIKRSSASTKGPSVFPLAPSSKSTSGGTAALGCLVKDYFPEPVTVSWNSGALTSGVHTFPAVLQSSGLYSLSSVVTVPSSSLGTQTYICNVNHKPSNTKVDKKVEPKSC
heavy 2: not shown
light 2: not shown
For the molecule B1, the entries for the “pseudovirus neutralization, IC50” value in assay [1], in [2] and in assay [3] were 0.078 µg/mL, 0.062 µg/mL and 0.044 µg/mL, respectively. In addition, the “pseudovirus neutralization, fold more effective than S309/Sotrovimab” value in [1] is around 78 fold.

B2: Clone 2 (antibody, V domains shown)
VH: EVQLQQSGPELVKPGASVKISCKASGYSFTGYSMNWMKQSPEKSLEWIGEINPSTGGTTDNQKFKAKATLTVDKSSSTAYMQLKSLTSEDSAVYYCARSRGDYWGQGTSVTVSS
VL: DIVLTQSPASLAVSLGQRATISCRASESVEYYGTSLMQWYQQKPGQPPKVLIYAASNVESGVPARFSGSGSGTDFSLNIHPVEEDDIAMYFCQQSRKVPWTFGGGTKLEIKR
Regarding B2, the “pseudovirus neutralization, IC50” value in [4] was determined as 0.396 µg/mL.

B3: MB.08 (antibody, V domains shown)
VH: QVQLQESGPGLVKPSETLSLTCTVSGGSISSYYWSWIRQPPGKGLEWIGYIYYSGSTNYNPSLKSRVTISVDTSKNQFSLKLSSVTAADTAVYYCARGLTGGDAFDIWGQGTMVTVSS
VL: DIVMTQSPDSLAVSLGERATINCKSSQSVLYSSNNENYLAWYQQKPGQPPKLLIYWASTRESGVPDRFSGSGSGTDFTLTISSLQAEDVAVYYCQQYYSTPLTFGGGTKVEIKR
Usually koff stands for a measure of how fast the partners let go of each other. Usually kon stands for the rate constant with which the complex forms. One may read the EC50 as the concentration giving half of the maximal effect. In general, Kd refers to the concentration at which binding is half-saturated. One may read the EC50 (read off the curve) as the midpoint of the concentration-response curve. As to B3, the koff in assay [5] is 0.00536 s⁻¹; in assay [6], 0.00536 s⁻¹; in [10] it was below 1e-07 s⁻¹. For the same molecule, the kon in [5] was 418000 M⁻¹ s⁻¹; in assay [6], 418000 M⁻¹ s⁻¹; in assay [10], 172000 M⁻¹ s⁻¹. Further, the EC50 in assay [7] was 0.0122 µg/mL; in assay [9] it was 0.0014 µg/mL. In addition, the Kd in [8] is 7.16 nM; in assay [12] it was below 0.001 nM. In addition, in assay [11], the “EC50 (read off the curve)” value is around 0.2 µg/mL.

(Values after patent publication US20240228595A1 (YALE UNIVERSITY, published 2024).)
